According to IntAct's records for PubMed 28441531:

B1: Myelin regulatory factor homolog 1 (Caenorhabditis elegans), G5EFI7 (parent)
chain: MSSSDLLKGEFDGLNSEHFNMMQYLTQDTDEDDGSMVSPTSSADSMHQNLGVQQQQQQMLQAQQRQNQNGIFQPRRFPESPAMTDPCGNVSSSSSSSHHSDPMFSPNEFNGYAGANDNGNQTMNNIQSQQLSQQQHQQTRGGNLMMPQQSSIHAQMQNMNAPQFWSQPGTAAVNQPTNTLAQLNLFNIIRGGADSGMPSPVLEMPRKRSRLDTPCETPRIAPSFAGIDGFPDENYSQQQAIRFSKFQEEQWSPLYDINAQPLQQLQVHVVADKGFNYNSNDNCFVNQKKNHFQISVNVEASDTMPPKYVNFNNRLVPIRDFKLSFCGVKAEMPSSEITIRQSRADRKPHTHTPVLFEIQERRMTKVCVPRLHFSETTLNNQRKQKNRPNPEQKFFLLVVRLFASIDESEHGVLIQSYASEKVIVRATNPGSFEPQDTDIGWQRNGGALYTQGAVSVGTEHQVESAKLTVAGDIYMSGRIINPSDIRLKEAITERETAEAIENLLKLRVVDYRYKPEVADIWGLDEQQRHRTGLIAQELQAVLPDAVRDIGDYLTIDEGRVFYETVMATQQLCRMTGDLDSKIDEKVAEISRRLNEYAVRKKLASSMASNLNGDNKSLSYSRCSLTSTATNATSQPKRSRKHRAIKQAQSCGSRLSQGTVVTLVSIMAACLLAMSALYVLDWHNRNYGYHQHFETNTPSTKGELANLVISPANFMPSFQPDAPILLEKCFNPSCKTYCCTDTPPVVEDSRAIATHGLDNGDEVYPESPSNRTNGIARAPNLEHMAFETGVEIRIPALNVTLDQRYCVERSCNKRKGIFNVFVPVSRYMPDVALEIEIKAPISKVVSNCGAFPSTEFNHKVCPLSRTQQSESPVPTSTRLFDNIFELSMGSFIQSAYRFRVGYSTETCFSEDSNGSYEEYNLIFYRMCTLSSS
partner: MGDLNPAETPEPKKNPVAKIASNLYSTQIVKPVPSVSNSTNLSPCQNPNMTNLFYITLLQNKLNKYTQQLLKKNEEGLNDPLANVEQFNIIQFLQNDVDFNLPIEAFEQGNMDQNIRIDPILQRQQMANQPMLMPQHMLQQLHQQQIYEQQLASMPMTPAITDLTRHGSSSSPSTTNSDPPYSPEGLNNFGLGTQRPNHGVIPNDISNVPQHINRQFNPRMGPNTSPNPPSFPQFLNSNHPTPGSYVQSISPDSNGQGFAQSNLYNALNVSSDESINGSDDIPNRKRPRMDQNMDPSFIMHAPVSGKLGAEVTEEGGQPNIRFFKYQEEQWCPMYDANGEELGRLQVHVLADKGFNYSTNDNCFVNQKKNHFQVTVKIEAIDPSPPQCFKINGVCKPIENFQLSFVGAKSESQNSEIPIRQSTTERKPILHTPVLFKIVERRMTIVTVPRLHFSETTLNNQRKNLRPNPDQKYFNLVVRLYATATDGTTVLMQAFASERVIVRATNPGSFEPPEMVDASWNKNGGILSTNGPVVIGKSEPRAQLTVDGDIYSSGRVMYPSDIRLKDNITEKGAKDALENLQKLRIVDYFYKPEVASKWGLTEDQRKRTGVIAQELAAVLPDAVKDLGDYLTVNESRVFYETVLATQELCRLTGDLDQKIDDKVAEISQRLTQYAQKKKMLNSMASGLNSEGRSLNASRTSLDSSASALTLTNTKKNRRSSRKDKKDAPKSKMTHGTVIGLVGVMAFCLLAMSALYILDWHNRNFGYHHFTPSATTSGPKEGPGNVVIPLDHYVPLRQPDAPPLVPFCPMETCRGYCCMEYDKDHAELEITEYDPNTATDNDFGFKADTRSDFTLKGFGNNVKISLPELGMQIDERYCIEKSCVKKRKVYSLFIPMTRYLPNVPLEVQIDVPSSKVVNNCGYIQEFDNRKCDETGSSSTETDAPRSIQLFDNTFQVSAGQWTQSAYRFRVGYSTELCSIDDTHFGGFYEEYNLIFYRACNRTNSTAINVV

Variants of: B1
Conditions: with myrf2_caeel myrf-2, D9PTN5

**Q.** For G274R, which “effect of a mutation on the interaction” value is on record?
**A.** Its value is “with no effect”.
